The values below come from patent publication US20170240629A1 (Hoffmann-La Roche, published 2017).

In test [1] the target is T1, human IL-1beta (human, UniProt P01584 117-269). Kind of test: ELISA, human IL-1beta (Peprotech) coated, Example 4 variant 1. (In general: In an ELISA, binding on a coated surface is turned into a signal by an enzyme label.)
Method: (§1) The binding analysis was carried out using an enzyme-linked immunosorbent assay (ELISA)-based technology. […] The EC₅₀ was calculated with a four parameter logistic model using GraphPad Prism 6.0 software.
Test [2] addresses T2, cynomolgus IL-1beta (cynomolgus, UniProt P79182 117-268). Kind of test: SPR (BIAcore); antibody captured by anti-Fc, IL-1beta injected. (SPR reads the build-up and loss of mass on a sensor chip optically.)
Method: (§2) All experiments were performed at 25° C. using HBS-P (10 mM His, 140 mM NaCl, 0.05% Tween 20 pH 7.4) as running and dilution buffer. Anti-human or anti-mouse Fc antibodies were immobilized on a Series S CM5 Sensor Chip (GE Healthcare) using standard amine coupling chemistry. […] The dissociation phase was monitored for 600 sec by washing with running buffer. […] The surface was regenerated by injecting 3 M MgCl2 (for anti-human Fc antibody) or 10 mM Glycine pH 1.5 (for anti-mouse Fc antibody) for 60 sec at a flow rate of 5 μl/min. Bulk refractive index differences were corrected by subtracting the response obtained from a mock surface. Blank injections were subtracted (double referencing). The derived curves were fitted to a 1:1 Langmuir binding model using the BIAevaluation software.
Test [3] has as its target T3, murine IL-1beta (murine, UniProt P10749 118-269). Kind of test: ELISA, murine IL-1beta coated, Example 6; based on MW 150 kDa.
Method: as §1
Test [4] addresses T1, human IL-1beta. Kind of test: SPR (BIAcore); antibody captured by anti-Fc, IL-1beta injected.
Method: as §2
For test [5], the target named is T3, murine IL-1beta. Kind of test: ELISA, murine IL-1beta coated, Example 6.
Method: as §1
The target in test [6] is T4, His-tagged human IL-1beta (human, UniProt P01584 117-269).
T4 construct: also called human His-tagged IL-1beta protein (Sino Biologics 10139-H07E); not shown: His tag
Kind of test: ELISA, His-tagged human IL-1beta coated, Example 4 variant 2.

In test [7] the target is T4, His-tagged human IL-1beta. Kind of test: competition ELISA, His-tagged IL-1beta coated; competitor Fc-tagged human IL-1 receptor type II (Example 8); based on MW 150 kDa.
Method: (§3) The IC₅₀ was calculated with a four parameter logistic model using GraphPad Prism 6.0 software.
Test [8] deals with rabbit IL-1beta (rabbit, UniProt P14628 117-268, limits assumed). Kind of test: SPR (BIAcore).
rabbit IL-1beta, sequence (P14628 117-268 limits assumed): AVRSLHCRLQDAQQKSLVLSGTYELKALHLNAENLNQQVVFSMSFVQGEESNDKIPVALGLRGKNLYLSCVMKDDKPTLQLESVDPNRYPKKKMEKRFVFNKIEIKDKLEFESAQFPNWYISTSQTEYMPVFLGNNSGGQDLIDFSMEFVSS
Test [9] has as its target rat IL-1beta (rat, UniProt Q63264 117-268). Kind of test: SPR (BIAcore); antibody captured by anti-Fc, IL-1beta injected.
Method: as §2
Test [10] deals with T1, human IL-1beta. Kind of test: cell-based or functional assay.
For test [11], the target named is T3, murine IL-1beta. Kind of test: SPR (BIAcore); antibody captured by anti-Fc, IL-1beta injected.
Method: as §2
Test [12] concerns the target T4, His-tagged human IL-1beta. Kind of test: ELISA, His-tagged human IL-1beta coated, Example 4 variant 2; based on MW 150 kDa.
Method: as §1
The target in test [13] is T4, His-tagged human IL-1beta. Kind of test: competition ELISA, His-tagged IL-1beta coated; competitor Fc-tagged human IL-1 receptor type I (Example 7); IL-1beta receptor I (example 7).
Method: as §3
Test [14] deals with T1, human IL-1beta. Kind of test: cell-based or functional assay. This is another data set of the same source.
Test [15] deals with T1, human IL-1beta. Kind of test: ELISA, human IL-1beta (Peprotech) coated, Example 4 variant 1; based on MW 150 kDa.
Method: as §1
In test [16] the target is T4, His-tagged human IL-1beta. Kind of test: competition ELISA, His-tagged IL-1beta coated; competitor Fc-tagged human IL-1 receptor type II (Example 8); IL-1beta receptor II (example 8).
Method: as §3
The target in test [17] is T4, His-tagged human IL-1beta. Kind of test: competition ELISA, His-tagged IL-1beta coated; competitor Fc-tagged human IL-1 receptor type I (Example 7); based on MW 150 kDa.
Method: as §3
Test [18] concerns the target T1, human IL-1beta. Kind of test: cell-based or functional assay. The source holds these as a separate data set.
The target of test [19] is T2, cynomolgus IL-1beta. Kind of test: ELISA, cynomolgus IL-1beta coated, Example 5; based on MW 150 kDa.
Method: as §1
For test [20], the target named is T2, cynomolgus IL-1beta. Kind of test: ELISA, cynomolgus IL-1beta coated, Example 5.
Method: as §1
For test [21], the target named is T1, human IL-1beta. Kind of test: SPR inhibition; 10 nM human IL-1beta pre-incubated with antibody, injected over immobilised human IL-1RI (competitor).
Method: All experiments were performed at 25° C. using HBS-P (10 mM His, 140 mM NaCl, 0.05% Tween 20 pH 7.4) as running and dilution buffer. Human IL-1RI was immobilized on a Series S CM5 Sensor Chip (GE Healthcare) using standard amine coupling chemistry. […] The surface was regenerated by injecting 10 mM NaOH for 60 sec at a flow rate of 5 μl/min. Bulk refractive index differences were corrected by subtracting the response obtained from a mock surface.
Test [22] has as its target T5, human PDGF-BB (human, UniProt P01127 82-190).
T5 construct: also called huPDGF-BB
Kind of test: SPR; apparent KD** of the whole antibody.

In test [23] the target is T5, human PDGF-BB. Kind of test: cell-based or functional assay.
For test [24], the target named is T5, human PDGF-BB. Kind of test: SPR; whole antibody.
For test [25], the target named is T6, human PDGF-AA (human, UniProt P04085 87-211, limits assumed).
T6 construct: also called huPDGF-AA
Kind of test: ELISA, antigen coated.

The target in test [26] is T7, murine PDGF-BB (murine, UniProt P31240 82-190).
T7 construct: also called muPDGF-BB
T7 sequence (P31240 82-190 limits assumed): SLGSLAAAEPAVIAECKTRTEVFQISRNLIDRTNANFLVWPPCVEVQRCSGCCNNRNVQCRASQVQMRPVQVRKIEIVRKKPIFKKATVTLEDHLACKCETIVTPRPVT
Kind of test: ELISA, antigen coated.

Test [27] has as its target rat PDGF-BB (rat, UniProt Q05028 74-182). Kind of test: ELISA, antigen coated.
The target in test [28] is T5, human PDGF-BB. Kind of test: ELISA, antigen coated.
Test [29] deals with T5, human PDGF-BB. Kind of test: cell-based or functional assay. This is another data set of the same source.
Test [30] has as its target T5, human PDGF-BB. Kind of test: competition ELISA; biotinylated human PDGF-BB with antibody on coated Fc-tagged PDGF-BB receptor (competitor).
Method: as §3
Test [31] concerns the target T5, human PDGF-BB. Kind of test: SPR (BIAcore T200) kinetic screening; PDGF-BB coupled on C1 chip, antibody injected.

Like-named read-outs stand apart in the source and are kept apart here.

T3 sequence (P10749 118-269 limits assumed): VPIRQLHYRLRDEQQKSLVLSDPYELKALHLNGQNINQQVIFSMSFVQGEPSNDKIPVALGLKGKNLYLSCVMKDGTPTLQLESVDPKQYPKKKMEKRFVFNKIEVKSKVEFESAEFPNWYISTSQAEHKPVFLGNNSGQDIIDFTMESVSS
T5 sequence (P01127 82-190 limits assumed): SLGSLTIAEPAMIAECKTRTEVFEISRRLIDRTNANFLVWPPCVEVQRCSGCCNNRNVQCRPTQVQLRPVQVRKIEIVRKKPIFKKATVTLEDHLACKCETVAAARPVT
rat IL-1beta, sequence (Q63264 117-268 limits assumed): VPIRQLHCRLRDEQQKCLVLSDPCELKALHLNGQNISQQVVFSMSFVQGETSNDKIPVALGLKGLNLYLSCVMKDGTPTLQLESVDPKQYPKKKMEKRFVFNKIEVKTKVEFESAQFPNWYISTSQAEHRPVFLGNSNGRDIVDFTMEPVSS
rat PDGF-BB, sequence (Q05028 74-182 limits assumed): as the sequence (P31240 82-190 limits assumed) above, with I83V, I102V counted along it

B1: IL-1beta-mumAb (antibody, V domains shown)
VH: EVQLQQSGPELEKPGASVKISCKASGYSFTDYNMNWVRQSNGKSLEWIGNIDPYYGGTTYNQKFKDKATLTVDKSSSTAYMQLKSLTSEDSAVYYCAREGSPTRYYVMDYWGQGTSVTVSS
VL: DIQMTQSPASLSASVGETVTITCRASENIYSNLAWYQQKQGKSPQLLVYAATNLADGVPSRFSGSGSGTQFSLKINSLQPEDFGSYYCHHFYNTPWTFGGGTKLEIK
notes: Murine antibody; also called murine anti-human IL-1beta antibody
Broadly, the EC50 is the concentration that produces a half-maximal response. Higher therefore signals weaker potency. What is called koff is a measure of how fast the partners let go of each other. Low readings indicate slow dissociation, high ones fast dissociation. In general, kon refers to a measure of how fast the partners come together. Low readings indicate slow association, high ones fast association. In general, IC50 refers to the concentration needed to halve the response being measured. As to B1, the 50% effective concentration (EC50) was 0.034 µg/mL in test [1]; 0.154 nM in [3]; 0.0231 µg/mL in test [5]; 0.0152 µg/mL in test [6]; 0.101 nM in test [12]; 0.227 nM in test [15]. The figures for the concentration giving a half-maximal response (EC50) in test [19] and in test [20] were 0.142 nM and 0.0213 µg/mL, respectively. Further, the Kd in test [2] was found to be 0.08 nM; in test [4], 0.07 nM; in test [8], 1.4 nM; in [9], 0.31 nM; in test [11], 0.49 nM. For the same molecule, the off-rate (koff) in test [2] was 9.5e-05 s⁻¹; in test [4], 7.5e-05 s⁻¹; in test [9] it was 0.000636 s⁻¹; in test [11], 0.00122 s⁻¹. Moreover, the kon in [2] was 1.15e+06 M⁻¹ s⁻¹; in test [4], 1.12e+06 M⁻¹ s⁻¹; in test [9], 2.04e+06 M⁻¹ s⁻¹; in [11] it was 2.47e+06 M⁻¹ s⁻¹. The IC50 was 0.88 nM in [7]; 0.231 µg/mL in test [13]; 0.132 µg/mL in test [16]; 1.54 nM in test [17]; 2.5 nM in test [21]. Besides, in test [10], the “IC50, inhibition of ICAM-1 expression upon IL-1beta stimulation of A549 cells” value was 0.7 nM. The “EC50, reduction of IL-6 expression upon IL-1beta stimulation of A549 cells” value in [14] was 1.09 nM. In addition, in [18], the “IC50, inhibition of ICAM-1 expression upon IL-1beta stimulation of HUVEC cells” value amounted to 16.5 nM.

B2: PDGF-B-mumAb (antibody, V domains shown)
VH: QVQLQQSGAELMKPGASVKISCKATGYTFSSYWIEWVKQRPGHGLEWIGEILPGSGSTNYNEKFKVKATFTADTSSNTAYMQLSSLTSEDSAVYYCAQTTQDFDSWGQGTTLTVSS
VL: DIVLTQSPGSLAVSLGQRATISCRASESVDIYGYSFMHWYQQKPGQPPKLLIYRASNLESGIPARFSGSGSRTDFTLTINPVEADDVATYYCQQSNEDPRTFGGGTKLEIK
notes: Murine antibody; also called murine anti-human PDGF-B antibody
In general, t½ refers to the time in which the quantity being followed falls by half. Read a high t½ as slow loss. In the case of B2, the Kd in test [22] stood at 0.042 nM. For the same molecule, the “IC50 Phospho-Inhibition” value in test [23] and in test [29] was 0.0017 µg/mL in each case. For the same molecule, the “IC50 Proliferation 3T3” value in test [23] and in [29] was 0.0551 µg/mL in each case. This molecule returned a T½ in [24] of 47.8 min. Besides, the EC50 turned out to be 0.00204 µg/mL in test [25], 0.0088 µg/mL in [26], 0.00512 µg/mL in [27] and 0.0163 µg/mL in test [28]. In test [30], the IC50 was 0.0122 µg/mL. Further, in test [31], the dissociation rate constant (koff) came to 0.00045 s⁻¹. Besides, the t½ in [31] amounted to 26 min.
